The record followed here is US20200172956A1 (NATIONAL UNIVERSITY CORPORATION KUMAMOTO UNIVERSITY, published 2020).

In this experiment the target is T1, type IV collagen α3-SmBiT (fusion protein having SmBiT at the C-terminal of wild-type type IV collagen α3(IV) … (Homo sapiens (Human), UniProt Q01955 43-1670)).
T1 construct: also called α3 chain; COL4A3 in pFC36K SmBiT vector
The experiment is described as follows: split luciferase (NanoBiT) luminescence in culture supernatant of HEK293T cells co-expressing the domain-deleted α5 fusion with α3 and α4 chains.

T1 sequence (Q01955 other isoform, or with tags, fused parts or gaps): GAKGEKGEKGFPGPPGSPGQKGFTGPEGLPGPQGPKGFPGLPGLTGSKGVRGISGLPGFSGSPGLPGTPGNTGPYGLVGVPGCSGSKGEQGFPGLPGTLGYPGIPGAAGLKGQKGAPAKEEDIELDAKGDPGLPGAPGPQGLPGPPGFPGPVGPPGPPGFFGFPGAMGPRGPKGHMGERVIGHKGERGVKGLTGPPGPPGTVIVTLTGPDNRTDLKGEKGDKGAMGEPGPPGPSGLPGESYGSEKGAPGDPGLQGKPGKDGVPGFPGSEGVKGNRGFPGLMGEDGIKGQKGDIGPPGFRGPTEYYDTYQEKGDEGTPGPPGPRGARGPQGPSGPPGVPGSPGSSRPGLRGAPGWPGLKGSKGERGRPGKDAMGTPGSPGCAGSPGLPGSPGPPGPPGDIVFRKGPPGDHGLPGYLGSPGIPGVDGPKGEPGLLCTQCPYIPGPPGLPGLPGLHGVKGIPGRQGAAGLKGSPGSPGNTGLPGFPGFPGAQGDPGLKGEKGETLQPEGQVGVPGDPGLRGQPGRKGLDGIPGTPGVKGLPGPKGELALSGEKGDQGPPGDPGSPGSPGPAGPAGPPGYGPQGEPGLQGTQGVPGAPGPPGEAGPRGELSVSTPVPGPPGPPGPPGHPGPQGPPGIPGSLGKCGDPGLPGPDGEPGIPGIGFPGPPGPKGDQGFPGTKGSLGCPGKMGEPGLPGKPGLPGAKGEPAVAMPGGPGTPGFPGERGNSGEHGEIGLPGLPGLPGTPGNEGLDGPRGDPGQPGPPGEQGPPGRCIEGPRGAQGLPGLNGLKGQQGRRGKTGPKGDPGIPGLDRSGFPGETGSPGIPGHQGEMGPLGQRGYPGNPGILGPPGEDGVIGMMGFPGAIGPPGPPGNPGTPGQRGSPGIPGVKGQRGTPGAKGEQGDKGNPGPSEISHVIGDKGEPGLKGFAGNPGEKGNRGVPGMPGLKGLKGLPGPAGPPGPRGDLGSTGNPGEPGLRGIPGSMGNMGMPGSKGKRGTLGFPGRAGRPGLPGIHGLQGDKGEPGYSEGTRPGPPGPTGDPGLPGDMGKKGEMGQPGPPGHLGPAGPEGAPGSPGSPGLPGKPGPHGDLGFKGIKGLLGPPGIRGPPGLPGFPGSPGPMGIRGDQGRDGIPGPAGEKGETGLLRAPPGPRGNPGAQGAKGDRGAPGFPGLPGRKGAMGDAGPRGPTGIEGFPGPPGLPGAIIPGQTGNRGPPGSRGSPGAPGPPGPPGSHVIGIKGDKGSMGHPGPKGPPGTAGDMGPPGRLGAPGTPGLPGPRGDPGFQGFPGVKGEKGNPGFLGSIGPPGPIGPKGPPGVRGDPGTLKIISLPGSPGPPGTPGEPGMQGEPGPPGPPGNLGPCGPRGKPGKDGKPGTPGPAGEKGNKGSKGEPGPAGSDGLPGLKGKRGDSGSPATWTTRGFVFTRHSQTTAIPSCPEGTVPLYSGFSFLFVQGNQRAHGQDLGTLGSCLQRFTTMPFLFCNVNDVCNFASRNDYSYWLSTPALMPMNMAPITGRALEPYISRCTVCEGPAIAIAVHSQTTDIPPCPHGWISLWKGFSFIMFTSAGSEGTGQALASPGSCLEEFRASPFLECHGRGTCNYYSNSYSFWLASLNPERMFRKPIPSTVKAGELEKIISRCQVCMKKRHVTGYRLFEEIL

B1: fusion protein having a split luciferase fragment at the C terminal of the NC1 domain of wild-type α5 chain (COL domain-deleted α5 chain) (other)
chain: GFLITRHSQTTDAPQCPQGTLQVYEGFSLLYVQGNKRAHGQDLGTAGSCLRRFSTMPFMFCNINNVCNFASRNDYSYWLSTPEPMPMSMQPLKGQSIQPFISRCAVCEAPAVVIAVHSQTIQIPHCPQGWDSLWIGYSFMMHTSAGAEGSGQALASPGSCLEEFRSAPFIECHGRGTCNYYANSYSFWLATVDVSDMFSKPQSETLKAGDLRTRISRCQVCMKRTMVFTLEDFVGDWEQTAAYNLDQVLEQGGVSSLLQNLAVSVTPIQRIVRSGENALKIDIHVIIPYEGLSADQMAQIEEVFKVVYPVDDHHFKVILPYGTLVIDGVTPNMLNYFGRPYEGIAVFDGKKITVTGTLWNGNKIIDERLITPDGSMLFRVTINS
notes: The residue range is converted from nucleotide numbers; also called 4COL (so in the source); probably ΔCOL
For the molecule B1, the binding result is reported as “no binding”.
